In US20090136484A1 one finds ELISA activity [%] compared with the reference standard data, which are given here for 1 molecule.

The target in test [1] is T1, Biotin-… (epitope sequence from candidal Hsp90) (Candida). Kind of test: ELISA, biotinylated peptide on streptavidin plate, anti-His-HRP detection; Site 2; sample in 50 mM Tris, 1 M sucrose, ~0.2% Tween20, 3 mM DTT, pH 3.0. A general note: ELISA stands for enzyme-linked immunosorbent assay.
For test [2], the target named is T1, Biotin-… (epitope sequence from …). As to the kind of experiment: ELISA, biotinylated peptide on streptavidin plate, anti-His-HRP detection; Site 2; sample in 50 mM Tris, 3 mM DTT, pH 9.0.
Test [3] has the same target. As to the kind of experiment: ELISA, biotinylated peptide on streptavidin plate, anti-His-HRP detection; Site 1; sample in 0.5 M urea, 0.2 M L-arginine pH 9.5.
Test [4] shares this target. As to the kind of experiment: ELISA, biotinylated peptide on streptavidin plate, anti-His-HRP detection; Site 1; sample in 50 mM Tris, 1 M sucrose, ~0.2% Tween20, 3 mM DTT, pH 3.0.
Test [5] shares this target. As to the kind of experiment: ELISA, biotinylated peptide on streptavidin plate, anti-His-HRP detection; Site 1; sample in 50 mM Tris, pH 9.0.
The target is the same in test [6]. Kind of test: ELISA, biotinylated peptide on streptavidin plate, anti-His-HRP detection; Site 2; sample in 50 mM Tris, pH 9.0.
Test [7] shares this target. As to the kind of experiment: ELISA, biotinylated peptide on streptavidin plate, anti-His-HRP detection; Site 2; sample in 0.5 M urea, 0.2 M L-arginine pH 9.5.
Test [8] has the same target. Kind of test: ELISA, biotinylated peptide on streptavidin plate, anti-His-HRP detection; Site 1; sample in 50 mM Tris, 3 mM DTT, pH 9.0.

B1: MYC123 ("wild type" Mycograb) scFv peptide (scFv)
scFv: MAEVQLVESGAEVKKPGESLRISCKGSGCIISSYWISWVRQMPGKGLEWMGKIDPGDSYINYSPSFQGHVTISADKSINTAYLQWNSLKASDTAMYYCARGGRDFGDSFDYWGQGTLVTVSSGGGGSGGGGSGGGGSDVVMTQSPSFLSAFVGDRITITCRASSGISRYLAWYQQAPGKAPKLLIYAASTLQTGVPSRFSGSGSGTEFTLTINSLQPEDFATYYCQHLNSYPLTFGGGTKVDIKRAAALEHHHHHH
Turning to B1, the ELISA activity [%] compared with the reference standard was found to be 130% in test [1]; 131% in test [2]; 90% in test [3]; 135% in test [4]; 71% in test [5]; 95% in test [6]. For the same molecule, the ELISA activity [%] compared with the reference standard turned out to be 78% in test [7] and 85% in test [8].
